These results are taken from patent US20150210998.

Substitutions are numbered along the chain they refer to.

Data set [1] addresses UbcH7˜125I-ubiquitin thioester, P68036.

UbcH7˜125I-ubiquitin thioester, P68036, sequence (P68036 whole entry, looked up): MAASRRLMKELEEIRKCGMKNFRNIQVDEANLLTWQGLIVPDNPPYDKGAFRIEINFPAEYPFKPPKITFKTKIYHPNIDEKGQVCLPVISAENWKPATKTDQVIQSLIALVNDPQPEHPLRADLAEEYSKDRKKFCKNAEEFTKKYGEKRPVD

B1: E6AP ligase Hect domain (GST removed by thrombin) (protein)
chain: INEPLNEVLEMDKDYTFFKVETENKFSFMTCPFILNAVTKNLGLYYDNRIRMYSERRITVLYSLVQGQQLNPYLRLKVRRDHIIDDALVRLEMIAMENPADLKKQLYVEFEGEQGVDEGGVSKEFFQLVVEEIFNPDIGMFTYDESTKLFWFNPSSFETEGQFTLIGIVLGLAIYNNCILDVHFPMVVYRKLMGKKGTFRDLGDSHPVLYQSLKDLLEYEGNVEDDMMITFQISQTDLFGNPMMYDLKENGDKIPITNENRKEFVNLYSDYILNKSVEKQFKAFRRGFHMVTNESPLKYLFRPEEIELLICGSRNLDFQALEETTEYDGGYTRDSVLIREFWEIVHSFTDEQKRLFLQFTTGTDRAPVGGLGKLKMIIAKNGPDTERLPTSHTCFNVLLLPEY
Consider B1, for which the Km- in data set [1] came to 0.091 µM.

B2: GST-E6AP ligase Hect domain (protein)
chain: B1 chain
For B2, the Km- in data set [1] was found to be 0.089 µM.

B3: GST-E6APK688A (protein)
chain: MATACKRSGEPQSDDIEASRMKRAAAKHLIERYYHQLTEGCGNEACTNEFCASCPTFLRMDNNAAAIKALELYKINAKLCDPHPSKKGASSAYLENSKGAPNNSCSEIKMNKKGARIDFKDVTYLTEEKVYEILELCREREDYSPLIRVIGRVFSSAEALVQSFRKVKQHTKEELKSLQAKDEDKDEDEKEKAACSAAAMEEDSEASSSRIGDSSQGDNNLQKLGPDDVSVDIDAIRRVYTRLLSNEKIETAFLNALVYLSPNVECDLTYHNVYSRDPNYLNLFIIVMENRNLHSPEYLEMALPLFCKAMSKLPLAAQGKLIRLWSKYNADQIRRMMETFQQLITYKVISNEFNSRNLVNDDDAIVAASKCLKMVYYANVVGGEVDTNHNEEDDEEPIPESSELTLQELLGEERRNKKGPRVDPLETELGVKTLDCRKPLIPFEEFINEPLNEVLEMDKDYTFFKVETENKFSFMTCPFILNAVTKNLGLYYDNRIRMYSERRITVLYSLVQGQQLNPYLRLKVRRDHIIDDALVRLEMIAMENPADLKKQLYVEFEGEQGVDEGGVSKEFFQLVVEEIFNPDIGMFTYDESTKLFWFNPSSFETEGQFTLIGIVLGLAIYNNCILDVHFPMVVYRKLMGKKGTFRDLGDSHPVLYQSLKDLLEYEGNVEDDMMITFQISQTDLFGNPMMYDLKENGDKIPITNENRAEFVNLYSDYILNKSVEKQFKAFRRGFHMVTNESPLKYLFRPEEIELLICGSRNLDFQALEETTEYDGGYTRDSVLIREFWEIVHSFTDEQKRLFLQFTTGTDRAPVGGLGKLKMIIAKNGPDTERLPTSHTCFNVLLLPEYSSKEKLKERLLKAITYAKGFGML
As to B3, the Km- in data set [1] stood at 0.039 µM.

B4: GST-E6APY533A (protein)
chain: B3 chain with Y553A, A708K
As for B4, the “fold decrease in kcat of polyubiquitin chain formation” value (“fold decrease in kcat” below) with Q05086 is given as “decreased kcat 10-fold”. Also, the Km- in data set [1] worked out at 0.04 µM.

B5: GST-E6APF727D (protein)
chain: B3 chain with A708K, F727D
B5: the “fold decrease in kcat” value with Q05086 is 62-fold decrease in kcat. Also, in data set [1], the Km- came to 0.072 µM.

B6: GST-E6APR626A (protein)
chain: B3 chain with R646A, A708K
For B6, in the data set with Q05086, the “fold decrease in kcat” value was “decreased kcat 155-fold”. Also, the Km- in data set [1] was determined as 0.15 µM.

B7: GST-E6APD543A (protein)
chain: B3 chain with D563A, A708K
For B7, the Km- in data set [1] was 0.54 µM.
